Tests used:
[1] = biological target: T1, human PD-L1 on cell surface (human, UniProt Q9NZQ7 19-290); assay: cell-based or functional assay
[2] = biological target: T1, human PD-L1 on cell surface; assay: flow cytometry on CHO cells expressing human PD-L1, fitted curve
Experimental: (§1) CHO cells expressing human or monkey PD-L1 and parent cells as a negative control were washed 3 times with PBS. 2.5×10⁵ detection cells and 100 μl of 3-fold serial dilutions of purified antibody with an initial concentration of 300 nM were added to a 96-well plate and incubated at 4° C. for 1 hr. […] Finally, the cells were washed 3 times with PBS, and the signal was read on FACS BD Calibur.

[3] = biological target: T2, monkey PD-L1 on cell surface (monkey); assay: flow cytometry on CHO cells expressing monkey PD-L1, fitted curve
T2 construct: whole, on cells; also called monkey PD-L1 cell line; CHO cells overexpressing monkey PD-L1
Experimental: as §1
Moreover, CHO cells overexpressing monkey PD-L1 were used to test the cross-recognition binding to monkey PD-L1 by the antibodies.

human PD-L1 protein [4] = biological target: T3, human PD-L1 protein (human, UniProt Q9NZQ7 19-238, limits assumed); assay: ELISA on human PD-L1 protein; antibody treated for 20 min at 70 C
Experimental: (§2) The antibody samples were treated for 20 min at various temperature gradients respectively, and then centrifuged to remove the pellet. Then the amount of remaining antibody was evaluated by ELISA. (The temperature gradient includes: room temperature, 30° C., 40° C., 50° C., 60° C., 70° C., […]) (FIG. 4)

human PD-L1 protein [5] = biological target: T3, human PD-L1 protein; assay: ELISA on human PD-L1 protein; antibody treated for 20 min (all overlapping curves)
Experimental: as §2

[6] = biological target: T4, PD-L1-HIS recombinant protein (human, UniProt Q9NZQ7 19-238, limits assumed); assay: SPR (Biacore 8K), antibody captured on chip, PD-L1-HIS analyte 2.5-80 nM, 1:1 binding model
T4 construct: not shown: His tag
Experimental: The chip surface was equilibrated with HBS-EP buffer at a flow rate of 10 μl/min for 5 min, and then a 1:1 mixture of “NHS+EDC” was injected at a flow rate of 10 μl/min for 420 sec to activate the chip. The capture antibody (goat anti-murine IgG) diluted in 10 mM sodium acetate buffer was injected for about 420 sec at a flow rate of 10 μl/min for coupling, and finally ethanolamine was injected for 420 sec at a flow rate of 10 μl/min to block the surface.
Three pre-cycles were performed with the HBS-EP buffer as a sample to balance the chip to stabilize the baseline. The antibody diluted in HBS-EP buffer was injected for 30 sec at a flow rate of 10 μl/min (where the antibody-antigen binding signal was controlled to about 100 RU by adjusting the capture time between 0-5 min), and then the chip was equilibrated with the buffer for 1 min. The low-concentration antigen 2.5 nM PD-L1-HIS was injected at a flow rate of 30 μl/min for 240/300 seconds, to allow the antigen to bind to the antibody, and then the buffer was injected at a flow rate of 30 μl/min for 720/600 seconds for dissociation. 50 mM HCl were injected three times each for 15 s at a flow rate of 100 μl/min for regeneration, to complete one cycle. The antigen concentration was changed (such as 5 nM PD-L1-HIS) to carry out the cycle for measurement at a next gradient concentration until all gradient concentrations (2.5 nM, 5 nM, 10 nM, 20 nM, 40 nM, 80 nM PD-L1-HIS) and the replicate (such as 10 nM PD-L1-HIS) were tested.
The experimental data was double subtracted (minus the background values of the control channel and zero concentration), and fitted to the “1:1 binding” model in the Biacore 8K evaluation software. Biacore 8K was used to determine the affinity of the antibody to the PD-L1-HIS recombinant protein.

human PD-L1 protein [7] = biological target: T3, human PD-L1 protein; assay: ELISA on human PD-L1 protein; antibody kept at 40 C for 0 (D0), 7 (D7) or 14 (D14) days
Experimental: The antibody samples were treated separately at 40° C., and then centrifuged to remove the pellet. Then the amount of remaining antibody was evaluated by ELISA. (test after treatment at 40° C. for 7 days (D7) and 14 days (D14) separately; for each test, the untreated sample (D0) stored at −80° C. is used as a control) (FIG. 3)

biotin-labeled PD-L1-Fc [8] = biological target: T5, biotin-labeled PD-L1-Fc (human, UniProt Q9NZQ7 19-238, limits assumed, biotin-labeled (sites not given)); assay: ELISA: biotin-PD-L1-Fc binding to coated human PD-1 with titrated antibody; enhancement of PD-L1/PD-1 binding
T5 construct: not shown: Fc part
Experimental: (§3) The ELISA plate (Nunc) was coated with 100 μl/well of 0.5 μg/ml recombinant human PD-1 protein in PBS at 4° C. overnight. The plate was washed with PBS-T (0.05% Tween), and blocked with 200 μl/well of PBST containing 1% BSA at 37° C. for 0.5 hr. Then the blocking buffer was discarded, and 50 μl of 10 μg/ml purified antibody to be tested was added to the first test well. 3-fold serial dilutions were made, and a total of 11 test concentration gradients were given. […] The plate was washed 3 times with PBST, and incubated with 100 μl/well of Streptavidin-HRP (SA-HRP, GenScript) at 37° C. for 10 min. Finally, the plate was washed 5 times with PBST, and then a TMB developing solution (GenScript) was added and incubated at room temperature for 15 min in the dark. The reaction was terminated by adding 50 μl of 1M HCl stop solution (Sigma). The plate was read at 450 nm on a microplate reader.

biotin-labeled PD-L1-Fc [9] = biological target: T5, biotin-labeled PD-L1-Fc; assay: ELISA: biotin-PD-L1-Fc binding to coated human PD-1 with titrated antibody, OD 450 nm, fitted curve; enhancement
Experimental: as §3

biotin-labeled PD-L1-Fc [10] = biological target: T5, biotin-labeled PD-L1-Fc; assay: flow cytometry: biotin-PD-L1-Fc binding to CHO cells expressing human PD-1 with titrated antibody, fitted curve; enhancement
Experimental: (§4) In the FACS test, CHO cells expressing human PD-1 and parent cells as a negative control were washed 3 times with PBS. 2.5×10⁵ detection cells and 50 μl of 3-fold serial dilutions of purified antibody with an initial concentration of 300 nM were added to a 96-well plate. […] Then the cells were washed 3 times with PBS, 100 μl of iFluor647-labeled streptavidin (1 μg/ml) was added, and the cells were incubated at 4° C. for 45 min. Finally, the cells were washed 3 times with PBS, and the signal was read on FACS BD Calibur.

biotin-labeled PD-L1-Fc [11] = biological target: T5, biotin-labeled PD-L1-Fc; assay: flow cytometry: biotin-PD-L1-Fc binding to CHO cells expressing human PD-1 with titrated antibody; enhancement of PD-L1/PD-1 binding
Experimental: as §4

human PD-L1 protein [12] = biological target: T3, human PD-L1 protein; assay: ELISA on the antigen (human PD-L1); antibody untreated (0), after oxidative stress (AAPH, 24 h) or deamidation stress (pH 9.0, 48 h); curves not told apart

T4 sequence (Q9NZQ7 19-238 limits assumed): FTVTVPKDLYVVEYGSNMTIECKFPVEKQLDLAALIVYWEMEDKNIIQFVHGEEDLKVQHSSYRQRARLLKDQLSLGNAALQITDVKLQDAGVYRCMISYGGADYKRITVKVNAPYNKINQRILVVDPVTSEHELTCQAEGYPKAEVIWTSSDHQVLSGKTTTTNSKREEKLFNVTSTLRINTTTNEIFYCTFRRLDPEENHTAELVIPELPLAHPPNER
T3 sequence (Q9NZQ7 19-238 limits assumed): as above
T5 sequence (Q9NZQ7 19-238 limits assumed): as above
T1 sequence (Q9NZQ7 19-290): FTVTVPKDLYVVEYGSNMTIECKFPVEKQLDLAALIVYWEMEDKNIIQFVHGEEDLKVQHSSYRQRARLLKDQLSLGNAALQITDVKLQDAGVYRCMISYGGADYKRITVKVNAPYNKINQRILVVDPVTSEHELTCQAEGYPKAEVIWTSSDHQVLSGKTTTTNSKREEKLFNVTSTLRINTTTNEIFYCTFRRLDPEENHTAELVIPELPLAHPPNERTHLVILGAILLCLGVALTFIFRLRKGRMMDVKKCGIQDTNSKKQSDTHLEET

B1: AH02029 (antibody, human IgG1, V domains shown)
VH: QVQLQESGPGLVKPSQTLSLTCTVTGYSITSGYTWHWIRQHPGKGLEWIGYIHYSGSTKYNPSLKSRVSISRDTSKNQFSLKLSSVTAADTAVYYCARNSLFASWGQGTLVTVSS
VL: DIVLTQSPDSLAVSLGERATINCRASESVDTYGDSFMHWYQQKPGQPPKLLIYRASNLESGVPDRFSGSGSGTDFTLTISSLQAEDVAVYYCQQSNEAPYTFGGGTKLEIK
notes: also called mPD-L1Ab-5BM clone AH02029
- Bottom (best-fit value) of IL-2 release, mixed lymphocyte reaction [1]: 1350
- EC50 (µg/ml) of IL-2 release, mixed lymphocyte reaction [1]: 0.0293 µg/mL
- LogEC50 (best-fit value) of IL-2 release, mixed lymphocyte reaction [1]: -1.53
- Span (best-fit value) of IL-2 release, mixed lymphocyte reaction [1]: 1020
- Top (best-fit value) of IL-2 release, mixed lymphocyte reaction [1]: 2370
- EC50 [2]: 0.478 nM
- LogEC50 [2]: -0.321
- EC50 [3]: 3.4 nM
- LogEC50 [3]: 0.532
- EC50 (read off the curve) (human PD-L1 protein [4]): ~0.04 µg/mL
- EC50 (read off the curve) (human PD-L1 protein [5]): ~0.01 µg/mL
- Kd [6]: 1.57 nM
- koff [6]: 0.000334 s⁻¹
- kon [6]: 213000 M⁻¹ s⁻¹
- EC50 (read off the curve) (human PD-L1 protein [7]): ~0.01 µg/mL
- EC50 (biotin-labeled PD-L1-Fc [8]): 0.017 µg/mL
- LogEC50 (biotin-labeled PD-L1-Fc [9]): 1.23
- LogEC50 (biotin-labeled PD-L1-Fc [10]): 1.59
- EC50 (biotin-labeled PD-L1-Fc [11]): 38.7 nM
- EC50 (read off the curve) (human PD-L1 protein [12]): ~0.02 µg/mL

Source: patent US20220073618A1 (NANJING GENSCRIPT BIOTECH, published 2022)
